Changes are numbered by the printed parent chain.
Experiments:
[1] = target: SLPI binding sites on HuT78 cells (human T cell line) (human); assay: competition with 125I-SLPI, intact HuT78 cells, competitor at 0.80 nM
[2] = target: SLPI binding sites on U937 cells (human monocyte cell line; intact cells, PMA-induced cells or plasma membranes) (human); assay: competition with 125I-SLPI, U937 plasma membranes, competitor at 0.800 nM
[3] = target: SLPI binding sites on U937 cells (human monocyte cell line; intact cells, PMA-induced cells or plasma membranes) (human); assay: competition with 125I-SLPI, U937 plasma membranes, competitor at 2.56 nM
[4] = target: SLPI binding sites on U937 cells (human monocyte cell line; intact cells, PMA-induced cells or plasma membranes) (human); assay: competition with 125I-SLPI, intact U937 cells, competitor at 8.2 nM
[5] = target: SLPI binding sites on U937 cells (human monocyte cell line; intact cells, PMA-induced cells or plasma membranes) (human); assay: competition with 125I-SLPI, U937 plasma membranes, competitor at 83.9 nM
[6] = target: SLPI binding sites on U937 cells (human monocyte cell line; intact cells, PMA-induced cells or plasma membranes) (human); assay: competition with 125I-SLPI, U937 plasma membranes, competitor at 0 nM
[7] = target: SLPI binding sites on U937 cells (human monocyte cell line; intact cells, PMA-induced cells or plasma membranes) (human); assay: competition with 125I-SLPI, U937 plasma membranes, Kd by Cheng-Prusoff
[8] = target: SLPI binding sites on HuT78 cells (human T cell line) (human); assay: competition with 125I-SLPI, intact HuT78 cells, competitor at 8.2 nM
[9] = target: T1, human neutrophil elastase (human, UniProt P08246 30-247, limits assumed); assay: BIAcore, immobilized Phe72 mutein, monoS fractions of CHAPS-solubilized U937 membranes; identity by comigration
T1 construct: also called HNE
T1 sequence (looked up): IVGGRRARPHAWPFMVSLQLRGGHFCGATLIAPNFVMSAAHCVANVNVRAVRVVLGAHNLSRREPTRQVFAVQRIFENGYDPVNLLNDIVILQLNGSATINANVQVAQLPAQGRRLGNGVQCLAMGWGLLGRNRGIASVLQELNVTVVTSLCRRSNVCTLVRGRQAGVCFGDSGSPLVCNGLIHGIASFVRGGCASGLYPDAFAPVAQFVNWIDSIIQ
Description: The BIAcore analytical system is available from Pharmacia Biosensor AB, Uppsala, Sweden.

[10] = target: SLPI binding sites on U937 cells (human monocyte cell line; intact cells, PMA-induced cells or plasma membranes) (human); assay: competition with 125I-SLPI, intact U937 cells, competitor at 0.80 nM
[11] = target: SLPI binding sites on HuT78 cells (human T cell line) (human); assay: competition with 125I-SLPI, intact HuT78 cells, Kd by Cheng-Prusoff
[12] = target: SLPI binding sites on U937 cells (human monocyte cell line; intact cells, PMA-induced cells or plasma membranes) (human); assay: competition with 125I-SLPI, U937 plasma membranes, competitor at 8.20 nM
[13] = target: SLPI binding sites on U937 cells (human monocyte cell line; intact cells, PMA-induced cells or plasma membranes) (human); assay: competition with 125I-SLPI, intact U937 cells, competitor at 2750 nM
[14] = target: SLPI binding sites on HuT78 cells (human T cell line) (human); assay: competition with 125I-SLPI, intact HuT78 cells, competitor at 2750 nM
[15] = target: SLPI binding sites on U937 cells (human monocyte cell line; intact cells, PMA-induced cells or plasma membranes) (human); assay: competition with 125I-SLPI, intact U937 cells, competitor at 0 nM
[16] = target: SLPI binding sites on U937 cells (human monocyte cell line; intact cells, PMA-induced cells or plasma membranes) (human); assay: competition with 125I-SLPI, intact U937 cells, competitor at 2.6 nM
[17] = target: SLPI binding sites on U937 cells (human monocyte cell line; intact cells, PMA-induced cells or plasma membranes) (human); assay: competition with 125I-SLPI, U937 plasma membranes, competitor at 2750 nM
[18] = target: SLPI binding sites on HuT78 cells (human T cell line) (human); assay: competition with 125I-SLPI, intact HuT78 cells, competitor at 84 nM
[19] = target: SLPI binding sites on U937 cells (human monocyte cell line; intact cells, PMA-induced cells or plasma membranes) (human); assay: competition with 125I-SLPI, U937 plasma membranes, competitor at 268 nM
[20] = target: SLPI binding sites on HuT78 cells (human T cell line) (human); assay: competition with 125I-SLPI, intact HuT78 cells, competitor at 2.6 nM
[21] = target: SLPI binding sites on HuT78 cells (human T cell line) (human); assay: competition with 125I-SLPI, intact HuT78 cells, competitor at 0 nM
[22] = target: SLPI binding sites on U937 cells (human monocyte cell line; intact cells, PMA-induced cells or plasma membranes) (human); assay: competition with 125I-SLPI, intact U937 cells, Kd by Cheng-Prusoff
[23] = target: SLPI binding sites on U937 cells (human monocyte cell line; intact cells, PMA-induced cells or plasma membranes) (human); assay: competition with 125I-SLPI, intact U937 cells, competitor at 84 nM
[24] = target: the molecule itself; assay: DSS crosslinking of 2 µM 125I-SLPI in the absence of virus, reducing SDS-PAGE, phosphor imager
Protocol: Incubation was stopped by addition of Laemmli sample buffer. […] The volume of the parallel sample that was loaded on the gel was 5 times larger than the volume of the virus-containing samples.

B1: SLPI mutein Phe 72 (other, human, UniProt P03973 26-132, looked up)
chain: SGKSFKAGVCPPKKSAQCLRYKKPECQSDWQCPGKKRCCPDTCGIKCLDPVDTPNPTRRKPGKCPVTYGQCFMLNPPNFCEMDGQCKRDLKCCMGMCGKSCVSPVKA
notes: mature; also called Phe72 mutein
Q: How did the % *SLPI BOUND [1] turn out when B1 was run?
A: Its % *SLPI BOUND is 69%.

Q: And the CPM *SLPI BOUND [2]?
A: Its CPM *SLPI BOUND is 12400 cpm.

Q: And the CPM *SLPI BOUND [3]?
A: Its CPM *SLPI BOUND is 8920 cpm.

Q: And the % *SLPI BOUND [4]?
A: Its % *SLPI BOUND is 22%.

Q: What about the CPM *SLPI BOUND [5] of the same binder?
A: Its CPM *SLPI BOUND is 1660 cpm.

Q: What about the CPM *SLPI BOUND [6] of the same binder?
A: The CPM *SLPI BOUND was 18700 cpm.

Q: What about the Kd [7] of the same binder?
A: Its Kd is 1 nM.

Q: What about the % *SLPI BOUND [8] of the same binder?
A: The % *SLPI BOUND was 57%.

Q: Does B1 bind [9]?
A: Result: binds

Q: What about the % *SLPI BOUND [10] of the same binder?
A: Its % *SLPI BOUND is 77%.

Q: And the Kd [11]?
A: Its Kd is 3 nM.

Q: What about the CPM *SLPI BOUND [12] of the same binder?
A: Its CPM *SLPI BOUND is 4260 cpm.

Q: And the % *SLPI BOUND [13]?
A: The % *SLPI BOUND was 5%.

Q: And the % *SLPI BOUND [14]?
A: The % *SLPI BOUND was 1%.

Q: And the % *SLPI BOUND [15]?
A: Its % *SLPI BOUND is 94%.

Q: What about the % *SLPI BOUND [16] of the same binder?
A: The % *SLPI BOUND was 51%.

Q: What about the CPM *SLPI BOUND [17] of the same binder?
A: Its CPM *SLPI BOUND is 1540 cpm.

Q: And the % *SLPI BOUND [18]?
A: The % *SLPI BOUND was 36%.

Q: And the CPM *SLPI BOUND [19]?
A: Its CPM *SLPI BOUND is 2580 cpm.

Q: What about the % *SLPI BOUND [20] of the same binder?
A: The % *SLPI BOUND was 90%.

Q: And the % *SLPI BOUND [21]?
A: The % *SLPI BOUND was 100%.

Q: And the Kd [22]?
A: The Kd was 2 nM.

Q: And the % *SLPI BOUND [23]?
A: The % *SLPI BOUND was 4%.

B2: serine leukocyte protease inhibitor (SLPI) (other, human, UniProt P03973 26-132, looked up)
chain: B1 chain with F72L
modifications: the tracer *SLPI carried I-125 (Bolton Hunter reagent in Examples 12-16, Iodogen in Example 19); positions not given
notes: mature; labelled and cold SLPI are treated as one molecule; also called *SLPI (radiolabelled); cold SLPI
Q: Does B2 bind [24]?
A: Result: binds

From patent US6869925 (Amgen, dated 2005)
